Assay results taken from patent publication US20150344540A1, “NOVEL GLP-1 RECEPTOR AGONISTS WITH CHOLESTEROL EFFLUX ACTIVITY” (NOVO NORDISK A/S, priority 2012, published 2015).
Where no end group is shown, it is not given here. [ ]: non-standard residue; d: D form. The star is where a group is joined. Desaminohistidyl = O=C(CCc1c[nH]cn1)*; Aib = CC(C)(N)C(=O)O

Target: human GLP-1 receptor (human, UniProt P43220)
Test: cell-based or functional assay

Row | Binder | CRE luciferase EC50, 0% HSA | CRE luciferase EC50, 1% HSA
1 | [Desaminohistidyl][Aib]EGTFTSDVSSYLEGEAVKEFIAWLVEKVKEFL-NH2 (SMILES CC[C@H](C)[C@H](NC(=O)[C@H](Cc1ccccc1)NC(=O)[C@H](CCC(=O)O)NC(=O)[C@H](CCCCN)NC(=O)[C@@H](NC(=O)[C@H](C)NC(=O)[C@H](CCC(=O)O)NC(=O)CNC(=O)[C@H](CCC(=O)O)NC(=O)[C@H](CC(C)C)NC(=O)[C@H](Cc1ccc(O)cc1)NC(=O)[C@H](CO)NC(=O)[C@H](CO)NC(=O)[C@@H](NC(=O)[C@H](CC(=O)O)NC(=O)[C@H](CO)NC(=O)[C@@H](NC(=O)[C@H](Cc1ccccc1)NC(=O)[C@@H](NC(=O)CNC(=O)[C@H](CCC(=O)O)NC(=O)C(C)(C)NC(=O)CCc1c[nH]cn1)[C@@H](C)O)[C@@H](C)O)C(C)C)C(C)C)C(=O)N[C@@H](C)C(=O)N[C@@H](Cc1c[nH]c2ccccc12)C(=O)N[C@@H](CC(C)C)C(=O)N[C@H](C(=O)N[C@@H](CCC(=O)O)C(=O)N[C@@H](CCCCN)C(=O)N[C@H](C(=O)N[C@@H](CCCCN)C(=O)N[C@@H](CCC(=O)O)C(=O)N[C@@H](Cc1ccccc1)C(=O)N[C@@H](CC(C)C)C(N)=O)C(C)C)C(C)C) [[desamino-His7,Aib8,Glu23,Val25,Glu34,Lys35,Val36,Lys37]-GLP-1-(7-37)-peptidyl-Glu-Phe-Leu amide] | 886 pM | 242 pM
2 | HGEGTFTSDVSSYLEGEAVKEFIAWLVEKVKEHL-NH2 [[Gly8,Glu23,Val25,Glu34,Lys35,Val36,Lys37]-GLP-1-(7-37)-peptidyl-Glu-His-Leu amide] | 337 pM | 96 pM
3 | H[Aib]EGTFTSDVSSYLEGQAVKEFIAWLVNK[Aib]AEFL-NH2 (N-terminus assumed; SMILES CC[C@H](C)[C@H](NC(=O)[C@H](Cc1ccccc1)NC(=O)[C@H](CCC(=O)O)NC(=O)[C@H](CCCCN)NC(=O)[C@@H](NC(=O)[C@H](C)NC(=O)[C@H](CCC(N)=O)NC(=O)CNC(=O)[C@H](CCC(=O)O)NC(=O)[C@H](CC(C)C)NC(=O)[C@H](Cc1ccc(O)cc1)NC(=O)[C@H](CO)NC(=O)[C@H](CO)NC(=O)[C@@H](NC(=O)[C@H](CC(=O)O)NC(=O)[C@H](CO)NC(=O)[C@@H](NC(=O)[C@H](Cc1ccccc1)NC(=O)[C@@H](NC(=O)CNC(=O)[C@H](CCC(=O)O)NC(=O)C(C)(C)NC(=O)[C@@H](N)Cc1c[nH]cn1)[C@@H](C)O)[C@@H](C)O)C(C)C)C(C)C)C(=O)N[C@@H](C)C(=O)N[C@@H](Cc1c[nH]c2ccccc12)C(=O)N[C@@H](CC(C)C)C(=O)N[C@H](C(=O)N[C@@H](CC(N)=O)C(=O)N[C@@H](CCCCN)C(=O)NC(C)(C)C(=O)N[C@@H](C)C(=O)N[C@@H](CCC(=O)O)C(=O)N[C@@H](Cc1ccccc1)C(=O)N[C@@H](CC(C)C)C(N)=O)C(C)C) [[Aib8,Val25,Asn34,Lys35,Aib36,Ala37]-GLP-1-(7-37)-peptidyl-Glu-Phe-Leu amide] | 108 pM | 62 pM
4 | H[Aib]EGTFTSDVSSYLEGEAVKEFIAWLVEKVKEHL-NH2 (N-terminus assumed; SMILES CC[C@H](C)[C@H](NC(=O)[C@H](Cc1ccccc1)NC(=O)[C@H](CCC(=O)O)NC(=O)[C@H](CCCCN)NC(=O)[C@@H](NC(=O)[C@H](C)NC(=O)[C@H](CCC(=O)O)NC(=O)CNC(=O)[C@H](CCC(=O)O)NC(=O)[C@H](CC(C)C)NC(=O)[C@H](Cc1ccc(O)cc1)NC(=O)[C@H](CO)NC(=O)[C@H](CO)NC(=O)[C@@H](NC(=O)[C@H](CC(=O)O)NC(=O)[C@H](CO)NC(=O)[C@@H](NC(=O)[C@H](Cc1ccccc1)NC(=O)[C@@H](NC(=O)CNC(=O)[C@H](CCC(=O)O)NC(=O)C(C)(C)NC(=O)[C@@H](N)Cc1c[nH]cn1)[C@@H](C)O)[C@@H](C)O)C(C)C)C(C)C)C(=O)N[C@@H](C)C(=O)N[C@@H](Cc1c[nH]c2ccccc12)C(=O)N[C@@H](CC(C)C)C(=O)N[C@H](C(=O)N[C@@H](CCC(=O)O)C(=O)N[C@@H](CCCCN)C(=O)N[C@H](C(=O)N[C@@H](CCCCN)C(=O)N[C@@H](CCC(=O)O)C(=O)N[C@@H](Cc1c[nH]cn1)C(=O)N[C@@H](CC(C)C)C(N)=O)C(C)C)C(C)C) [[Aib8,Glu23,Val25,Glu34,Lys35,Val36,Lys37]-GLP-1-(7-37)-peptidyl-Glu-His-Leu amide] | 89 pM | 116 pM
5 | H[Aib]EGTFTSDVSSYLEGEAVKEFIQWLLEK[Aib]KEFL-NH2 (N-terminus assumed; SMILES CC[C@H](C)[C@H](NC(=O)[C@H](Cc1ccccc1)NC(=O)[C@H](CCC(=O)O)NC(=O)[C@H](CCCCN)NC(=O)[C@@H](NC(=O)[C@H](C)NC(=O)[C@H](CCC(=O)O)NC(=O)CNC(=O)[C@H](CCC(=O)O)NC(=O)[C@H](CC(C)C)NC(=O)[C@H](Cc1ccc(O)cc1)NC(=O)[C@H](CO)NC(=O)[C@H](CO)NC(=O)[C@@H](NC(=O)[C@H](CC(=O)O)NC(=O)[C@H](CO)NC(=O)[C@@H](NC(=O)[C@H](Cc1ccccc1)NC(=O)[C@@H](NC(=O)CNC(=O)[C@H](CCC(=O)O)NC(=O)C(C)(C)NC(=O)[C@@H](N)Cc1c[nH]cn1)[C@@H](C)O)[C@@H](C)O)C(C)C)C(C)C)C(=O)N[C@@H](CCC(N)=O)C(=O)N[C@@H](Cc1c[nH]c2ccccc12)C(=O)N[C@@H](CC(C)C)C(=O)N[C@@H](CC(C)C)C(=O)N[C@@H](CCC(=O)O)C(=O)N[C@@H](CCCCN)C(=O)NC(C)(C)C(=O)N[C@@H](CCCCN)C(=O)N[C@@H](CCC(=O)O)C(=O)N[C@@H](Cc1ccccc1)C(=O)N[C@@H](CC(C)C)C(N)=O) [[Aib8,Glu23,Val25,Gln30,Leu33,Glu34,Lys35,Aib36,Lys37]-GLP-1-(7-37)-peptidyl-Glu-Phe-Leu amide] | 238 pM | 61 pM
6 | H[Aib]EGTFTSDVSSYLEGEKVKEFIEHLVEK[Aib]KEFL-NH2 (N-terminus assumed; SMILES CC[C@H](C)[C@H](NC(=O)[C@H](Cc1ccccc1)NC(=O)[C@H](CCC(=O)O)NC(=O)[C@H](CCCCN)NC(=O)[C@@H](NC(=O)[C@H](CCCCN)NC(=O)[C@H](CCC(=O)O)NC(=O)CNC(=O)[C@H](CCC(=O)O)NC(=O)[C@H](CC(C)C)NC(=O)[C@H](Cc1ccc(O)cc1)NC(=O)[C@H](CO)NC(=O)[C@H](CO)NC(=O)[C@@H](NC(=O)[C@H](CC(=O)O)NC(=O)[C@H](CO)NC(=O)[C@@H](NC(=O)[C@H](Cc1ccccc1)NC(=O)[C@@H](NC(=O)CNC(=O)[C@H](CCC(=O)O)NC(=O)C(C)(C)NC(=O)[C@@H](N)Cc1c[nH]cn1)[C@@H](C)O)[C@@H](C)O)C(C)C)C(C)C)C(=O)N[C@@H](CCC(=O)O)C(=O)N[C@@H](Cc1c[nH]cn1)C(=O)N[C@@H](CC(C)C)C(=O)N[C@H](C(=O)N[C@@H](CCC(=O)O)C(=O)N[C@@H](CCCCN)C(=O)NC(C)(C)C(=O)N[C@@H](CCCCN)C(=O)N[C@@H](CCC(=O)O)C(=O)N[C@@H](Cc1ccccc1)C(=O)N[C@@H](CC(C)C)C(N)=O)C(C)C) [[Aib8,Glu23,Lys24,Val25,Glu30,His31,Glu34,Lys35,Aib36,Lys37]-GLP-1-(7-37)-peptidyl-Glu-Phe-Leu amide] | 1840 pM | 593 pM
7 | H[Aib]EGTFTSDVSSYLEGQAVKQFIAWLVNK[Aib]AEFL-NH2 (N-terminus assumed; SMILES CC[C@H](C)[C@H](NC(=O)[C@H](Cc1ccccc1)NC(=O)[C@H](CCC(N)=O)NC(=O)[C@H](CCCCN)NC(=O)[C@@H](NC(=O)[C@H](C)NC(=O)[C@H](CCC(N)=O)NC(=O)CNC(=O)[C@H](CCC(=O)O)NC(=O)[C@H](CC(C)C)NC(=O)[C@H](Cc1ccc(O)cc1)NC(=O)[C@H](CO)NC(=O)[C@H](CO)NC(=O)[C@@H](NC(=O)[C@H](CC(=O)O)NC(=O)[C@H](CO)NC(=O)[C@@H](NC(=O)[C@H](Cc1ccccc1)NC(=O)[C@@H](NC(=O)CNC(=O)[C@H](CCC(=O)O)NC(=O)C(C)(C)NC(=O)[C@@H](N)Cc1c[nH]cn1)[C@@H](C)O)[C@@H](C)O)C(C)C)C(C)C)C(=O)N[C@@H](C)C(=O)N[C@@H](Cc1c[nH]c2ccccc12)C(=O)N[C@@H](CC(C)C)C(=O)N[C@H](C(=O)N[C@@H](CC(N)=O)C(=O)N[C@@H](CCCCN)C(=O)NC(C)(C)C(=O)N[C@@H](C)C(=O)N[C@@H](CCC(=O)O)C(=O)N[C@@H](Cc1ccccc1)C(=O)N[C@@H](CC(C)C)C(N)=O)C(C)C) [[Aib8,Val25,Gln27,Asn34,Lys35,Aib36,Ala37]-GLP-1-(7-37)-peptidyl-Glu-Phe-Leu amide] | 235 pM | 109 pM
8 | HGEGTFTSDVSSYLEGEAVKEFIAWLVEKVKEFL-NH2 [[Gly8,Glu23,Val25,Glu34,Lys35,Val36,Lys37]-GLP-1-(7-37)-peptidyl-Glu-Phe-Leu amide] | 6080 pM | 1380 pM
9 | H[Aib]EGTFTSDVSSYLEGQAVKQFIAWLVEK[Aib]AEFL-NH2 (N-terminus assumed; SMILES CC[C@H](C)[C@H](NC(=O)[C@H](Cc1ccccc1)NC(=O)[C@H](CCC(N)=O)NC(=O)[C@H](CCCCN)NC(=O)[C@@H](NC(=O)[C@H](C)NC(=O)[C@H](CCC(N)=O)NC(=O)CNC(=O)[C@H](CCC(=O)O)NC(=O)[C@H](CC(C)C)NC(=O)[C@H](Cc1ccc(O)cc1)NC(=O)[C@H](CO)NC(=O)[C@H](CO)NC(=O)[C@@H](NC(=O)[C@H](CC(=O)O)NC(=O)[C@H](CO)NC(=O)[C@@H](NC(=O)[C@H](Cc1ccccc1)NC(=O)[C@@H](NC(=O)CNC(=O)[C@H](CCC(=O)O)NC(=O)C(C)(C)NC(=O)[C@@H](N)Cc1c[nH]cn1)[C@@H](C)O)[C@@H](C)O)C(C)C)C(C)C)C(=O)N[C@@H](C)C(=O)N[C@@H](Cc1c[nH]c2ccccc12)C(=O)N[C@@H](CC(C)C)C(=O)N[C@H](C(=O)N[C@@H](CCC(=O)O)C(=O)N[C@@H](CCCCN)C(=O)NC(C)(C)C(=O)N[C@@H](C)C(=O)N[C@@H](CCC(=O)O)C(=O)N[C@@H](Cc1ccccc1)C(=O)N[C@@H](CC(C)C)C(N)=O)C(C)C) [[Aib8,Val25,Gln27,Glu34,Lys35,Aib36,Ala37]-GLP-1-(7-37)-peptidyl-Glu-Phe-Leu amide] | 191 pM | 69 pM
